Data on three substances can be found in paper PMC3695229.

The target of one assay is TGF-β3 (Homo sapiens) (UniProt P10600). Conditions: cited from earlier work.
For a further assay, the target named is TGF-β2 (Homo sapiens) (UniProt P61812). Conditions: cited from earlier work.
The target of another assay is TGF-β1 (Homo sapiens) (UniProt P01137). Conditions: cited from earlier work.
For another assay, the target named is TGFR-3-ZP(ΔC) (mouse) (UniProt O88393). Description: SEC; analytical SEC of the ligand-free protein on Superdex 200 10/300, 4°C, 0.5 ml/min; apparent molecular weight against standards. For orientation: Size exclusion chromatography separates by hydrodynamic size, large species first.
The target of assay [1] is P1-mZP (C-terminus mimetic peptide of murine TGFR-3-ZP, residues 735-782) (mouse) (UniProt O88393). Description: SPR; ProteOn XPR36; biotinylated peptides immobilised on neutravidin (300-600 RU), TGF-β2 as analyte; 25°C, HBS150 (10 mM HEPES pH 7.4, 150 mM NaCl, 3.4 mM EDTA, 0.005% Tween 20); kinetic fit 1:1 Langmuir with or without mass transfer; avidity of dimeric TGF-β2 expected.

For assay [2], the target named is P2-hZP (C-terminus mimetic peptide of human TGFR-3, residues 737-788) (human) (UniProt Q03167). Described as above.
Assay [3] has as its target P4-mZP (17mer peptide of murine TGFR-3, residues 732-748) (mouse) (UniProt O88393). The assay is described as above.
For assay [4], the target named is P5-hZP (17mer peptide of human TGFR-3, residues 734-750) (human) (UniProt Q03167). The assay is described as above.

Chain of P1-mZP (C-terminus mimetic peptide of murine TGFR-3-ZP, residues 735-782) (mouse) (O88393 735-782): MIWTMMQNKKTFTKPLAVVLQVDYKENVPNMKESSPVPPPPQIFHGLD
Chain of P2-hZP (C-terminus mimetic peptide of human TGFR-3, residues 737-788) (human) (Q03167 737-788): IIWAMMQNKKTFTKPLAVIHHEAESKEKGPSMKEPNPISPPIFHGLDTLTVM
Chain of TGFR-3 membrane-proximal ectodomain C-terminal half of ectodomain (P26342 410-781): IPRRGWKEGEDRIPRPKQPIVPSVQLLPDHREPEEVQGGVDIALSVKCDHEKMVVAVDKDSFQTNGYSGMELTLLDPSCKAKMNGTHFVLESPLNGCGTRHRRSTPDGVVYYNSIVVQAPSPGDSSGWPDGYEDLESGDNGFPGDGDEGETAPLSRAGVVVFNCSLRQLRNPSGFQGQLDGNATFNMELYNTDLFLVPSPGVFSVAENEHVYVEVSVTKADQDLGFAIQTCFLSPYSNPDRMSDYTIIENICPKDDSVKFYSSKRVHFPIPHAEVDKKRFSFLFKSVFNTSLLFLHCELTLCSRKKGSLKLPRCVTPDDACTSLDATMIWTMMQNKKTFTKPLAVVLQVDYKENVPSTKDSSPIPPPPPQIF
Chain of TGF-β2 (Homo sapiens) (P61812 303-414): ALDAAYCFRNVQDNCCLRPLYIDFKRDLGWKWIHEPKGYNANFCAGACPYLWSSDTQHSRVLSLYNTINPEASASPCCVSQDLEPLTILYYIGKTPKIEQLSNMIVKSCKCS
Chain of TGF-β3 (Homo sapiens) (P10600 301-412): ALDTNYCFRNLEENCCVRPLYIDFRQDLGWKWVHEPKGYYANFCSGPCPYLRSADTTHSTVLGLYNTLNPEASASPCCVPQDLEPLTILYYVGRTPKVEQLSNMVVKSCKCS
Chain of TGF-β1 (Homo sapiens) (P01137 279-390): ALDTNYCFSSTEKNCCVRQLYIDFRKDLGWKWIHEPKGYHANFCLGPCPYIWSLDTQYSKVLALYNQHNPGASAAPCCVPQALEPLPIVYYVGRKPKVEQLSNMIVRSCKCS

As to “TGFR-3 membrane-proximal ectodomain C-terminal half of ectodomain (from UniProt P26342)”, the values for the Kd with TGF-β3 (Homo sapiens), with TGF-β2 (Homo sapiens) and with TGF-β1 (Homo sapiens) were 5800 nM, 2600 nM and 9700 nM, respectively.

On to “TGFR-3-ZP(ΔC) (from UniProt O88393 438-734) (domain or fragment)”, for which the stoichiometry N with TGFR-3-ZP(ΔC) (mouse) is 2.

As to human TGF-β2 (ligand), the Kd in assay [1] is 7.9 nM; in assay [2], 15 nM; in assay [3], 192 nM; in assay [4], 353 nM. Moreover, the dissociation rate constant (koff) in assay [1] was 0.029 s⁻¹; in assay [2], 0.044 s⁻¹; in assay [3], 0.02 s⁻¹; in assay [4], 0.029 s⁻¹. In addition, the kon in assay [1] was 5.2e+06 M⁻¹ s⁻¹; in assay [2], 4.4e+06 M⁻¹ s⁻¹; in assay [3], 110000 M⁻¹ s⁻¹; in assay [4], 79000 M⁻¹ s⁻¹.

By stoichiometry N is commonly meant the number of molecules, sites or subunits per partner or assembly. Broadly, the koff is the first-order rate constant of dissociation. The low end stands for a long-lived complex, the high end for a short-lived complex. The term kon denotes a measure of how fast the partners come together. Read a high kon as fast association.
